Reference: patent US20240124605A1 (published 2024)
Residue numbers refer to the chain shown, from its start. In names and notes the source's numbering stands. Values belong to the binder of their own block, whether it stands above or below them.

Key:
[1] = biological target: T1, CD123-Fc (Sino Biological) (human, UniProt P26951 19-305); assay: ELISA of MBP fusions for binding to CD123 (FIG. 3)
T1 construct: Bought reagent; not shown: Fc of the bought fusion (detected with anti-human Fc, captured on AHC sensor)
T1 sequence: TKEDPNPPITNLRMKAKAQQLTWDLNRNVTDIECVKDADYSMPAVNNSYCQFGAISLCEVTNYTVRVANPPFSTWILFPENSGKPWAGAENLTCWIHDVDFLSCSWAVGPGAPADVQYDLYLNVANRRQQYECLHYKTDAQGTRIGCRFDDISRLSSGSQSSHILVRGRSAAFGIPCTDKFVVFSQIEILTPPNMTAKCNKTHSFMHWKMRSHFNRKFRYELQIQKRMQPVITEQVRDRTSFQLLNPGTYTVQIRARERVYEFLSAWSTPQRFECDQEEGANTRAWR
Procedure: (§1) Parent and mutated variant D domains were expressed as MBP fusions in E. coli (T7 Express, New England Biolabs) by either IPTG (isopropylthio-(3-galactoside) induction for 4 hours at 37° C. in Luria broth containing antibiotics and 0.2% glucose or through auto-induction for 16 hours at 30° C. using MagicMedia (Life Technologies). Post induction, cells were pelleted, washed and resuspended in “leak-out buffer” comprising 200 mM Tris pH 7.5 and 20 mM EDTA. After incubation at 30° C. for 16 hours, supernatant containing MBP fusion proteins were assayed by ELISA for both target binding and expression. Supernatants were added to 96-well Immulon 4HBX microtiter plates coated with anti-MBP polyclonal antibody (Abcam) at 0.0032 ug/ml. Followed by washing, bound MBP fusion proteins were detected either with CD123-Fc (Sino Biological)+anti-human Fc HRP (Abcam) to assess CD123 binding, or with anti-MBP-HRP (New England Biolabs) to assess MBP fusion protein expression.

[2] = biological target: T1, CD123-Fc (Sino Biological); assay: ELISA: MBP fusion captured on anti-MBP antibody, detected with CD123-Fc + anti-human Fc HRP
Procedure: as §1

[3] = biological target: T1, CD123-Fc (Sino Biological); assay: BLI (Octet), CD123-Fc captured on AHC sensor, Adapter 500-0.69 nM in solution, global 1:1 fit, 25 C
Procedure: To assess the kinetics of CD123 binding, Adapter proteins comprising the D domains were analyzed using Bio-Layer Interferometry (BLI). Adapter proteins comprising a CD123-binding D domain and a P26(Q26-V229) AFP polypeptide (SEQ ID NO: 39) were generated through transient transfection of HEK-293 cells, followed by Ni-Sepharose Excel (Cytiva) and SEC chromatography. BLI experiments were performed using an Octet RED386 (Sartorius). All experiments were performed at 25° C. in kinetic buffer (PBS, 0.1% BSA, 0.02% tween 20) under constant 1000 rpm agitation. CD123-Fc (20 nM) was captured on an AHC sensor (Sartorius) for 250 seconds to a loading density of ˜0.8 nm. […] The surface was regenerated by 3 rounds of 10 seconds of 10 mM Glycine pH 1.5, followed by kinetic buffer. The data was analyzed using a global fit with a 1:1 interaction model from Sartorius Octet Analysis studio.

[4] = biological target: T2, CD123 expressed on the surface of cells (OCI-AML2, MOLM13, NALM6-CD123+) (human, UniProt P26951 19-378); assay: flow cytometry
T2 chain: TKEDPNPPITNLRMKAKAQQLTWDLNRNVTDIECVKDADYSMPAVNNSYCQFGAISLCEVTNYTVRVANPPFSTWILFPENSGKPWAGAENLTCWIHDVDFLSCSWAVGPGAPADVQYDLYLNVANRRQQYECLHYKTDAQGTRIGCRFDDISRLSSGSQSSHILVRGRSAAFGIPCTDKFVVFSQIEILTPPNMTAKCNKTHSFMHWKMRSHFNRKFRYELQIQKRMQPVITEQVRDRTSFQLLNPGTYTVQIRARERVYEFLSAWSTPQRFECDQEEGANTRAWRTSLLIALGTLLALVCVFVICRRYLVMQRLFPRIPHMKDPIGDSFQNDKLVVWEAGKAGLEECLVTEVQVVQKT

[5] = biological target: T1, CD123-Fc (Sino Biological); assay: method not stated in the sentence (BLI of Adapters follows)
[6] = biological target: T1, CD123-Fc (Sino Biological); assay: ELISA of MBP fusions normalized for protein concentration, serial dilution
Procedure: as §1

B1: 5S5W D domain as MBP fusion (designed binder, not shown: large carriers)
chain: MGSWSEFNMRLDAIYERLTALGGSEAELAAFEKEIAAFESELQAYKGKGNPEVEWLRHSAARIRLELQAYRHN
binding result [1]: binds

B3: Adapter protein comprising the 6T1D D domain and a P26(Q26-V229) AFP polypeptide (designed binder)
chain: MGSWDEFGRRLYAIEWQLYALGGTEAELAAFEKEIAAFESELQAYKGKGNPEVEKLREIAAVIRENLQAYRHNQESQALAKRSCGLFQKLGEYYLQNAFLVAYTKKAPQLTSSELMAITRKMAATAATCCQLSEDKLLACGEGAADIIIGHLCIRHEMTPVNPGVGQCCTSSYANRRPCFSSLVVDETYVPPAFSDDKFIFHKDLCQAQGVALQTMKQEFLINLVKQKPQITEEQLEAVIADFSGLLEKCCQGQEQEVCFAEEGQKLISKTRAALGV
notes: also called parental D domain (6T1D); not shown: His tag (purified on Ni-Sepharose)
Kd [3]: 7.6 nM
koff [3]: 0.00105 s⁻¹
kon [3]: 139000 M⁻¹ s⁻¹
EC50 [4]: 2.61 µg/mL

B4: Adapter protein comprising the 8O3S D domain and a P26(Q26-V229) AFP polypeptide (designed binder)
chain: B3 chain with W16T
notes: also called 6T1D(W16T); not shown: His tag (purified on Ni-Sepharose)
Kd [3]: 28 nM
koff [3]: 0.00665 s⁻¹
kon [3]: 235000 M⁻¹ s⁻¹
EC50 [4]: 4.62 µg/mL

B6: Adapter protein comprising the 1F9I D domain and a P26(Q26-V229) AFP polypeptide (designed binder)
chain: B3 chain with L21Q, I59L
notes: also called 6T1D(L21Q, I59L); not shown: His tag (purified on Ni-Sepharose)
Kd [3]: 7.6 nM
koff [3]: 0.000646 s⁻¹
kon [3]: 85200 M⁻¹ s⁻¹

B7: Adapter protein comprising the 4I0K D domain and a P26(Q26-V229) AFP polypeptide (designed binder)
chain: B3 chain with W16S
notes: also called 6T1D(W16S); not shown: His tag (purified on Ni-Sepharose)
Kd [3]: 14 nM
koff [3]: 0.00252 s⁻¹
kon [3]: 177000 M⁻¹ s⁻¹
EC50 [4]: 4.26 µg/mL

B8: Adapter protein comprising the 3F4N D domain and a P26(Q26-V229) AFP polypeptide (designed binder)
chain: B3 chain with N50S
notes: also called 6T1D(N50S); not shown: His tag (purified on Ni-Sepharose)
Kd [3]: 1.3 nM
koff [3]: 0.000275 s⁻¹
kon [3]: 213000 M⁻¹ s⁻¹
EC50 [4]: 1.83 µg/mL

B9: Adapter protein comprising the 4R8U D domain and a P26(Q26-V229) AFP polypeptide (designed binder)
chain: B3 chain with K48E, N50S
notes: also called 6T1D(K48E, N50S); not shown: His tag (purified on Ni-Sepharose)
Kd [3]: 1.2 nM
koff [3]: 0.000304 s⁻¹
kon [3]: 254000 M⁻¹ s⁻¹
EC50 [4]: 1.9 µg/mL

B10: Adapter protein comprising the 5B1Q D domain and a P26(Q26-V229) AFP polypeptide (designed binder)
chain: B3 chain with G8S, L21Q, K48E, N50S, I59L
notes: also called 6T1D(G8S, L21Q, K48E, N50S, I59L); not shown: His tag (purified on Ni-Sepharose)
Kd [3]: 0.73 nM
koff [3]: 0.000136 s⁻¹
kon [3]: 187000 M⁻¹ s⁻¹
fold enhancement of affinity over that of 6T1D [5]: ~10 fold
EC50 [4]: 3.22 µg/mL

B11: Adapter protein comprising the 0C8S D domain and a P26(Q26-V229) AFP polypeptide (designed binder)
chain: B3 chain with G8S, K48E, N50S, I59L
notes: also called 0085; 6T1D(G8S, K48E, N50S, I59L); not shown: His tag (purified on Ni-Sepharose)
Kd [3]: 1 nM
koff [3]: 0.000151 s⁻¹
kon [3]: 146000 M⁻¹ s⁻¹
EC50 [4]: 2.44 µg/mL

B12: Adapter protein comprising the 6K4C D domain and a P26(Q26-V229) AFP polypeptide (designed binder)
chain: B3 chain with D5A
notes: also called 6T1D(D5A); not shown: His tag (purified on Ni-Sepharose)
Kd [3]: 18 nM
koff [3]: 0.00353 s⁻¹
kon [3]: 197000 M⁻¹ s⁻¹

Second part, the binder after the results:

binding result [2]: binds
B2: 5B7L D domain as MBP fusion (designed binder, not shown: large carriers)
chain: B1 chain with S5I, T19V, H58K, S59V, R62N

Kd [3]: 5.2 nM
koff [3]: 0.000924 s⁻¹
kon [3]: 177000 M⁻¹ s⁻¹
B5: Adapter protein comprising the 8W9C D domain and a P26(Q26-V229) AFP polypeptide (designed binder)
chain: B3 chain with Q17R, T24S, E65S
notes: also called wild type; not shown: His tag (purified on Ni-Sepharose)

binding result [6]: binds
B13: 1J1K D domain as MBP fusion (designed binder, not shown: large carriers; small tags and cut ends)
chain: MGSWDEFSRRLYAIEWRLYALGGSEAELAAFEKEIAAFESELQAYKGKGNPEVEKLREIAAVIRSNLQAYRHN
notes: also called 8W9C (G8S)

binding result [6]: binds
B14: 4H2H D domain as MBP fusion (designed binder, not shown: large carriers; small tags and cut ends)
chain: B13 chain with S8G, K48I, K55N
notes: also called 8W9C (K48I, K55N)

binding result [6]: binds
B15: 6Z5E D domain as MBP fusion (designed binder, not shown: large carriers; small tags and cut ends)
chain: B13 chain with S8G, N50S
notes: also called 8W9C (N50S)
